Data on 1 molecule can be found in article PMC2654577.

Test in all cases: enzyme inhibition kinetics
The target of assay [1] is factor XIa catalytic domain K175A (human).
Assay [2] deals with factor XIa catalytic domain R171A (human) (UniProt P03951).
In assay [3] the target is factor XIa catalytic domain K170A (human) (UniProt P03951).
Assay [4] deals with factor XIa catalytic domain K179A (human).
Assay [5] concerns the target factor XIa catalytic domain R173A (human) (UniProt P03951).
Assay [6] addresses full-length factor XIa autolysis loop variant fXIa-144-149A (human).
The target is the same in assay [7]. The source holds these as a separate data set.
Assay [8] deals with factor XIa catalytic domain K175A (human). This is another data set of the same source.
The next assay has as its target wild type factor Xa (UniProt P00742).
In assay [9] the target is factor XIa catalytic domain with residues 170, 171 and 173 changed to alanine (human) (UniProt P03951).
Assay [10] deals with factor XIa catalytic domain R171A (human) (UniProt P03951). The source holds these as a separate data set.
Assay [11] deals with wild type recombinant factor XIa, full length (human).
The target of assay [12] is factor XIa catalytic domain K170A (human) (UniProt P03951). This is another data set of the same source.
Assay [13] addresses recombinant wild type factor XIa catalytic domain (human) (UniProt P03951).
Assay [14] deals with factor Xa mutants with substitutions for basic residues in the autolysis loop.
In assay [15] the target is factor XIa catalytic domain K179A (human). The source holds these as a separate data set.
In assay [16] the target is factor XIa catalytic domain R173A (human) (UniProt P03951). The source holds these as a separate data set.
For assay [17], the target named is full-length factor XIa autolysis loop variant fXIa-144-149A (human). The source holds these as a separate data set.

Where two headings read alike, the source gives them in different places.

B1: C1-inhibitor (natural protein)
chain: NPNATSSSSQDPESLQDRGEGKVATTVISKMLFVEPILEVSSLPTTNSTTNSATKITANTTDEPTTQPTTEPTTQPTIQPTQPTTQLPTDSPTQPTTGSFCPGPVTLCSDLESHSTEAVLGDALVDFSLKLYHAFSAMKKVETNMAFSPFSIASLLTQVLLGAGENTKTNLESILSYPKDFTCVHQALKGFTTKGVTSVSQIFHSPDLAIRDTFVNASRTLYSSSPRVLSNNSDANLELINTWVAKNTNNKISRLLDSLPSDTRLVLLNAIYLSAKWKTTFDPKKTRMEPFHFKNSVIKVPMMNSKKYPVAHFIDQTLKAKVGQLQLSHNLSLVILVPQNLKHRLEDMEQALSPSVFKAIMEKLEMSKFQPTLLTLPRIKVTTSQDMLSIMEKLEFFDFSYDLNLCGLTEDPDLQVSAMQHQTVLELTETGVEAAAASAISVARTLLVFEVQQPFLFVLWDQQHKFPVFMGRVYDPRA
Turning to B1, the k2 (second-order inhibition rate constant) in [1] worked out at 1000 M⁻¹ s⁻¹; in assay [2] it was 600 M⁻¹ s⁻¹; in assay [3], 1200 M⁻¹ s⁻¹; in assay [4] it was 1100 M⁻¹ s⁻¹; in assay [5] it was 1300 M⁻¹ s⁻¹; in assay [6], 19200 M⁻¹ s⁻¹. In addition, the k2 (second-order inhibition rate constant) in assay [7] was 19500 M⁻¹ s⁻¹; in [8], 730000 M⁻¹ s⁻¹; in assay [9], 430000 M⁻¹ s⁻¹; in assay [10], 261000 M⁻¹ s⁻¹; in assay [11] it was 536000 M⁻¹ s⁻¹; in assay [12], 734000 M⁻¹ s⁻¹. Besides, the k2 (second-order inhibition rate constant) in assay [13] turned out to be 750000 M⁻¹ s⁻¹; in assay [15] it was 778000 M⁻¹ s⁻¹; in assay [16] it was 667000 M⁻¹ s⁻¹; in [17], 20600 M⁻¹ s⁻¹. Also, the fold effect of heparin on inhibition in the assay with wild type factor Xa came out at 35 fold; in assay [14], 4 fold.
